Data reported in publication PMC11190292, “Hetero-oligomerization of TDP-43 carboxy-terminal fragments with cellular proteins contributes to proteotoxicity” (Communications Biology, 2024).

Biological target: the molecule itself
Test: fluorescence correlation spectroscopy (FCS); soluble supernatant of transfected Neuro2a cell lysate (50 mM Hepes-KOH pH 7.5, 150 mM NaCl, 1% Nonidet P-40); counts per particle (CPP) against GFP monomers as read-out of homo-oligomerisation, diffusion time as read-out of size

B1: GFP-tagged TDP-43 carboxy-terminal fragment 233-414 (C233) (domain or fragment, human, UniProt Q13148 233-414, looked up)
chain: TFADDQIAQSLCGEDLIIKGISVHISNAEPKHNSNRQLERSGRFGGNPGGFGNQGGFGNSRGGGAGLGNNQGSNMGGGMNFGAFSINPAMMAAAQAALQSSWGMMGMLASQQNQSGPSGNNQNQGNMQREPNQAFGSGNNSYSGSNSGAAIGWGSASNAGSGSGFNGGFGSSMDSKSSGWGM
notes: Cloned into pmeGFP-C1 (HindIII/BamHI); also called G-C233; GFP-C233; source: Neuro2a, transfected, in lysate; not shown: GFP (monomeric enhanced GFP, A206K), N-terminal, kept
- counts per particle (CPP) relative to GFP monomers: ~4 fold
